# PMC5499804
# Numbering of substitutions follows the chain as printed.
# T1: DDX21 m4 (Homo sapiens, UniProt Q9NR30 1-783, P754Y;R755E;Q757I;R758Q)
# T1 sequence: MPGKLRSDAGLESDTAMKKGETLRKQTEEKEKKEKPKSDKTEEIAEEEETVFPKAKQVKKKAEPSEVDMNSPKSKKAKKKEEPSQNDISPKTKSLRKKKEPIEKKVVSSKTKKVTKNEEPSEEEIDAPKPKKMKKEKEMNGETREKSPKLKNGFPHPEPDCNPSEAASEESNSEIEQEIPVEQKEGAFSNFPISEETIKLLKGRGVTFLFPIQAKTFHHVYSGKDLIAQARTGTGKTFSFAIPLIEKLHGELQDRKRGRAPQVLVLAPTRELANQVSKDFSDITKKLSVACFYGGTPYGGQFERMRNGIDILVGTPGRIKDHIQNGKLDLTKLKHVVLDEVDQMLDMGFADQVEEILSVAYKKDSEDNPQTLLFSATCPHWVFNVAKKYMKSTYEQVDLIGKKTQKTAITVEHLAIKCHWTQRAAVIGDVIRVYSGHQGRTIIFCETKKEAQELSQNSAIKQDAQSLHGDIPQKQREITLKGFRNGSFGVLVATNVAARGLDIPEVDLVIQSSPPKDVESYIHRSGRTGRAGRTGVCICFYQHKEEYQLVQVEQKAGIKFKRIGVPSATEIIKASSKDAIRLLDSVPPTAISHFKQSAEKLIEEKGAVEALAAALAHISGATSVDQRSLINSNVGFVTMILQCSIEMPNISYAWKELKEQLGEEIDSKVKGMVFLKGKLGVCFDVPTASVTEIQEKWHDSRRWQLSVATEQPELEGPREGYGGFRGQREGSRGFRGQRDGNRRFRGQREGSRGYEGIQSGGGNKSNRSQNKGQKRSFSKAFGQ
# T2: DDX21 full length (1-783) (Homo sapiens, UniProt Q9NR30 1-783)
# T2 sequence: T1 sequence with Y754P, E755R, I757Q, Q758R
# T3: DDX21(574-783) (Homo sapiens, UniProt Q9NR30 574-783)
# T3 sequence: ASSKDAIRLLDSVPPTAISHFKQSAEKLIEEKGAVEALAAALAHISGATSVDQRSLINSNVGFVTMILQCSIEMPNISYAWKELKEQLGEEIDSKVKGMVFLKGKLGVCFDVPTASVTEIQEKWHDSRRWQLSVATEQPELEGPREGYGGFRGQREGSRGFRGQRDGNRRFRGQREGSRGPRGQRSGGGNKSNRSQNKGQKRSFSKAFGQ
# B1: hTR(10-43) (structured_RNA)
# RNA: AGGGUGGGCCUGGGAGGGGUGGUGGCCAU
# B2: Q2 (structured_RNA)
# RNA: GUUGGGGCGGGCGUUGGGUUUGGGGGGACG
# B3: Q2-mutant (ssRNA)
# RNA: GUUGCGCCGCGCGUUGCGUUUGCGCGCACG
# How the values were obtained:
# Assay in all cases: MST
# DDX21 m4 = target: T1, DDX21 m4
# [1] = target: T2, DDX21 full length (1-783)
# DDX21(574-783) [2] = target: T3, DDX21(574-783)
# DDX21(574-783) [3] = target: T3, DDX21(574-783); remark: listed apart in the source
binder,measurement,setting,value
B1,binding result,DDX21 m4,no binding
same,Kd,[1],324 ± 7 nM
same,Kd,DDX21(574-783) [2],149 ± 10 nM
B2,Kd,[1],10 ± 0.7 nM
B3,binding result,DDX21 m4,no binding
same,binding result,[1],no binding
same,binding signal,DDX21(574-783) [3],~1000 fold less affinity than Q2 wild type
